These results are taken from article PMC4778250 (ACS Central Science, 2015).

The target of experiment [1] is T1, mouse Class II MHC complex (Mus musculus C57BL/6 (H-2b; I-A b), UniProt P14434;P14483). Nature of the experiment: flow cytometry on cells.
The target of experiment [2] is T1, mouse Class II MHC complex. Nature of the experiment: flow cytometry on cells. The source holds these as a separate data set. (In general: Flow cytometry measures light scatter and fluorescence of single cells or particles in a stream.)

T1 sequence (P14434 24-256, chain 1 of 2): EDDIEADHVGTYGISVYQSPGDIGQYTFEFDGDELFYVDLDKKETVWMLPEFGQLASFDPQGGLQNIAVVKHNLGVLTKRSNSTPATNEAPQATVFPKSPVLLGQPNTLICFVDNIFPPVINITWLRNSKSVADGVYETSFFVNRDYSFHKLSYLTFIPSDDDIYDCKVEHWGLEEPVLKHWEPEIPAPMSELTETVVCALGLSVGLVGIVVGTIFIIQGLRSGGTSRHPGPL
T1 sequence (P14483 28-265, chain 2 of 2): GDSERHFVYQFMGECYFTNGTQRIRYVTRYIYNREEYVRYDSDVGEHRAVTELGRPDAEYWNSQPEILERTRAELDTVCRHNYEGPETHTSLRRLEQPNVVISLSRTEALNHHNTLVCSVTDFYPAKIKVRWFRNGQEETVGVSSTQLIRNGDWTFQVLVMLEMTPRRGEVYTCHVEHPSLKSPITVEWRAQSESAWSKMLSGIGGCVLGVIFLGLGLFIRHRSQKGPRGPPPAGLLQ

B1: VHH7 (anti-mouse Class II MHC single domain antibody) (VHH)
VHH: QVQLQESGGGLVQAGDSLRLSCAASGRTFSRGVMGWFRRAPGKEREFVAIFSGSSWSGRSTYYSDSVKGRFTISRDNAKNTVYLQMNGLKPEDTAVYYCAAGYPEAYSAYGRESTYDYWGQGTQVTVSS
As usually defined, the EC50 is the concentration that produces a half-maximal response. Lower therefore signals greater potency. As to B1, the EC50 in experiment [1] fell in the range of 0.055 to 0.06 µM.

B2: VHH4 (specific for human Class II MHC) (VHH)
VHH: QVQLQESGGGLVQAGGSLRLSCAASGSTLSSYGMGWYRQAPGKQREVVATISATGSISYADSVKGRFTISRDSAKNTMYLQLNSLTPEDTAVYYCNTIYRSTLYWGQGTQVTVSS
Turning to B2, the binding result in experiment [2] is reported as “no binding”.
